# Measurements taken from patent CN113621065A (WUHAN HSA BIND BIOTECHNOLOGY CO LTD, dated 2021).
# Experiments:
# [1] = molecular target: T1, 阴性对照蛋白BSA (UniProt P02769 25-607); experiment: single-phage ELISA, 100 ng/well coated protein
# T1 construct: also called 对照BSA
# [2] = molecular target: T2, 人4-1BB胞外区蛋白(hu4-1BB ECD) (human, UniProt Q07011 24-186); experiment: single-phage ELISA, 100 ng/well coated 4-1BB
# T2 construct: extracellular domain; also called 人4-1BB蛋白; 抗原4-1BB
# T1 sequence (P02769 25-607 limits assumed): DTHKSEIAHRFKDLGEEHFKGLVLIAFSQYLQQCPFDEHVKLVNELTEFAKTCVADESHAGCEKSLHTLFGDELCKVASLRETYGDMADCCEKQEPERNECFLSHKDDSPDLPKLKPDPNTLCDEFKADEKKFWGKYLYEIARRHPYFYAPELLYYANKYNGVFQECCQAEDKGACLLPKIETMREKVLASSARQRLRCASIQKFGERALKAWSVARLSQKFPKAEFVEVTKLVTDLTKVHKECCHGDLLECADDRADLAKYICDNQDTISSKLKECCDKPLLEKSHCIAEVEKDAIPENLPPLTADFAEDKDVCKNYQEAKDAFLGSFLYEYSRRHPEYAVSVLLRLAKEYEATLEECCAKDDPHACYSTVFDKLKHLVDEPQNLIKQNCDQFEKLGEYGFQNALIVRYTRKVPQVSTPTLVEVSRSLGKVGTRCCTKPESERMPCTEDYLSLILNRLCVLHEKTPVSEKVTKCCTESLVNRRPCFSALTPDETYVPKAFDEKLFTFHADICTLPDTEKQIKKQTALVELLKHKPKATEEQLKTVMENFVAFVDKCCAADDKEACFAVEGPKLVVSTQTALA
binder,measurement,setting,value
抗体(scFv)8F5 (scFv) scFv: QVQLVQSGAEVKKPGASVKVSCKPSGYTFTSHYIHWVRQAPGQGLEWMGWINPNSGGTNYAQKFQGRVTMTRDTSISTAYMELSRLRSDDTAVYYCARDGGGMDVWGKGTMVTVSSGGGGSGGGGSGGGGSQSALTQPASVSGSPGQSITISCTGTSSDVGGYDFVSWYQHHPGKAPKLMIYGVANRPSGVSNRFSGSKSGNTASLTISGLQAEDDADYYCSSYSSTSTRYVFGTGTKVTVLG,binding result,[1],no binding
same,binding result,[2],binds
